{"source": "patent US7399847", "about": "(GENERAL HOSPITAL, dated 2008)", "binders": {"B1": {"name": "P-selectin:immunoglobulin fusion protein (Fc fusion, UniProt P16109 42-321, looked up)", "chain": "WTYHYSTKAYSWNISRKYCQNRYTDLVAIQNKNEIDYLNKVLPYYSSYYWIGIRKNNKTWTWVGTKKALTNEAENWADNEPNNKRNNEDCVEIYIKSPSAPGKWNDEHCLKKKHALCYTASCQDMSCSKQGECLETIGNYTCSCYPGFYGPECEYVRECGELELPQHVLMNCSHPLGNFSFNSQCSFHCTDGYQVNGPSKLECLASGIWTNKPPQCLAAQCPPLKIPERGNMTCLHSAKAFQHQSSCSFSCEEGFALVGPEVVQCTASGVWTAPAPVCKA", "notes": "domain: lectin, EGF-related, and first two short consensus repeat related domains; Made in COS cells; captured from supernatant on wells coated with goat anti-human IgG Fc; also called soluble P-selectin; P-selectin Ig chimera; not shown: hinge, CH2, and CH3 domains of human IgG1"}}, "molecular_target": "T1, PSGL-1-NH2/CD34-COOH (UniProt Q14242 18-117; P28906 30-385)", "T1 construct": "range mature amino terminus-117;range 30-end (end not numbered), on cells; Cotransfected with FTVIIh; also called PSGL-1 apical domain on CD34", "T1 sequence": "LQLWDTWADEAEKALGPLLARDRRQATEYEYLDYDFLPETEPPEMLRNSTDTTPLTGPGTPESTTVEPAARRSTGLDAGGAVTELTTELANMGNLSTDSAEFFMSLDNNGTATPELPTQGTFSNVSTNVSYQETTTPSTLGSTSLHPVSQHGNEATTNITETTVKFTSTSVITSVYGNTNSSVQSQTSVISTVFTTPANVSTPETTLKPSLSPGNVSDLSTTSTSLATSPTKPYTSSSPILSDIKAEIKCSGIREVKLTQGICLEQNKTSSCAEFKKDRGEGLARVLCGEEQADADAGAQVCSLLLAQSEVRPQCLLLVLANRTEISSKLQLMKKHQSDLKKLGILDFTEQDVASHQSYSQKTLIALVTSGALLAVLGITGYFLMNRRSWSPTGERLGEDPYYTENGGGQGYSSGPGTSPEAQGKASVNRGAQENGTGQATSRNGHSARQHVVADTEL", "experiment": "adhesion of 51Cr-labelled transfected COS cells to immobilized P-selectin:Ig", "data": [{"binder": "B1", "values": [{"measurement": "binding result", "value": "binds"}]}]}
